Data taken from paper PMC5967339, “Rhodopsin-cyclases for photocontrol of cGMP/cAMP and 2.3 Å structure of the adenylyl cyclase domain” (Nature Communications, 2018).

Assays:
[1] = system: T1, Nc1ncnc2c1ncn2[C@@H]1O[C@H](COP(=O)(O)OP(=O)(O)OP(=O)(O)O)[C@@H](O)[C@H]1O; experiment: RP-HPLC of cAMP, initial rates, Hill fit; assay type: biochemical, Catenaria anguillulae; settings: ATP/Mn2+, pH 7.5, 22 °C
T1 construct: CaAC is a homodimer in the crystal
From the text: RP-HPLC of cAMP, initial rates, Hill fit on CaGC (mutant form: CaAC)

CaRhGC = experiment: RP-HPLC of cGMP, initial rates, Hill fit; assay type: biochemical, Catenaria anguillulae; settings: GTP/Mn2+, pH 7.5, 22 °C, 522 nm light 0.010 mW mm^-2, dark activity subtracted, detergent
From the text: RP-HPLC of cGMP, initial rates, Hill fit on CaRhGC

[2] = substrate: Nc1nc2c(ncn2[C@@H]2O[C@H](COP(=O)(O)OP(=O)(O)OP(=O)(O)O)[C@@H](O)[C@H]2O)c(=O)[nH]1; experiment: RP-HPLC of cGMP, initial rates, Hill fit; assay type: biochemical, Blastocladiella emersonii; settings: GTP/Mn2+, pH 7.5, 22 °C, 522 nm light 0.010 mW mm^-2, dark activity subtracted, detergent
From the text: RP-HPLC of cGMP, initial rates, Hill fit on BeRhGC

[3] = substrate: Nc1nc2c(ncn2[C@@H]2O[C@H](COP(=O)(O)OP(=O)(O)OP(=O)(O)O)[C@@H](O)[C@H]2O)c(=O)[nH]1; experiment: RP-HPLC of cGMP, initial rates, Hill fit; assay type: biochemical, Blastocladiella emersonii; settings: GTP/Mn2+, pH 7.5, 22 °C
From the text: RP-HPLC of cGMP, initial rates, Hill fit on BeGC

In the case of “CaGC (mutant form: CaAC) (Catenaria anguillulae PL171; C201D/E132K)”, the Km [1] is reported as 6.09 ± 1.74 mM, the kcat [1] is reported as 1.012 s⁻¹ and the kcat/Km [1] is reported as 170 M⁻¹ s⁻¹.

For `Nc1nc2c(ncn2[C@@H]2O[C@H](COP(=O)(O)OP(=O)(O)OP(=O)(O)O)[C@@H](O)[C@H]2O)c(=O)[nH]1` [GTP], the Km (CaRhGC) was 6.1 ± 5.59 mM.

B1: BeRhGC (Blastocladiella emersonii) (protein)
chain: MKDKDNNLRGACSSCNCPEYCFSPTSTLCDDCKCSVTKHPIVEQPLSRNGSFRSSGASLLPSPSSPNVKITSTVGLRSRKSESQANVRGSMISNSNSGSRSNNSGGAGGGSGGSSSSKGGSALANYQSAMSELWSWNMMLSTPSLKFLTVQFTTWIVLTTVGAIYTLFFHERQAYNRGWADIWYGYGAFGFGLGLSFAYMGFTGARNPEKKALSLCLLGVNFISFMSYIIIMLRLTPTIEGTMANPVEPARYLEWIATCPVLILLISEITQYPHDPYKVIVNDYALCLAGFVGAISAQQPWGDLAHFVSCLCFSYVVYSLWSCFTGAIDGETQCNVEKSGLRWIRFSTITTWSLFPITWFSYTSGLISFTVAEAGFSMIDIGAKVFLTLVLVNSTVEQAQNQKVDAITAIAEELENQINNCDAILQKMMPEGVLEQLKNGQATEAKEYESVTVFFSDITNFTVISSRTSTKDMMATLNKLWLEYDAIAKRWGVYKVETIGDAYLGVTGAPDVVPDHAERACNFAVDIIEMIKSFKTITGESINIRIGLNSGPVTAGVLGDLNPHWCLVGDTVNTASRMESTSKAGHIHISESTYHFIKSKFVTQPLDVMEVKGKGKMQTYWVLGRK
B1 gave a Km [2] of 0.92 ± 0.27 mM, a kcat [2] of 1.07 s⁻¹ and a kcat/Km [2] of 1200 M⁻¹ s⁻¹.

B2: BeGC (Blastocladiella emersonii) (protein)
chain: TEAKEYESVTVFFSDITNFTVISSRTSTKDMMATLNKLWLEYDAIAKRWGVYKVETIGDAYLGVTGAPDVVPDHAERACNFAVDIIEMIKSFKTITGESINIRIGLNSGPVTAGVLGDLNPHWCLVGDTVNTASRMESTSKAGHIHISESTYHFIKSKFVTQPLDVMEVKGKGKMQTYWVLGRK
B2 gave a Km [3] of 2.16 ± 0.30 mM, a kcat [3] of 0.339 s⁻¹ and a kcat/Km [3] of 160 M⁻¹ s⁻¹.
